Reference: article PMC4434323

Legend:
[1] = target: atf-7 (C07G2.2) (Caenorhabditis elegans) (UniProt Q86MD3)
[2] = target: T1, Y51H4A.4 (Y51H4A.4) (Caenorhabditis elegans) (UniProt Q9NAE4)
T1 sequence: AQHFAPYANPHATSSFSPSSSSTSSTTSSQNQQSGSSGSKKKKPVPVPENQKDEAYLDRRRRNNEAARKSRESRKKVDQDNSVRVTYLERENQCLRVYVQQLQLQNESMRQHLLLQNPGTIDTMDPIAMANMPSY

[3] = target: T2, W08E12.1 (W08E12.1) (Caenorhabditis elegans) (UniProt Q9N5A8)
T2 sequence: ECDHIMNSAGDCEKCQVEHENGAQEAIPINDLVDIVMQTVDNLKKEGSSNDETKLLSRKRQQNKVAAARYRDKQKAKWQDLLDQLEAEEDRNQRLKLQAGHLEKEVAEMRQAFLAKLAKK

[4] = target: T3, atf-5 (T04C10.4) (Caenorhabditis elegans) (UniProt Q22156)
T3 sequence: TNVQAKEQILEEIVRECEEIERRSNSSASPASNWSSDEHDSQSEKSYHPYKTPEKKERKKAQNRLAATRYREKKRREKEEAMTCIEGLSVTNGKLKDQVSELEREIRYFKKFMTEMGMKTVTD

[5] = target: T4, atf-6 (F45E6.2) (Caenorhabditis elegans) (UniProt Q20435)
T4 sequence: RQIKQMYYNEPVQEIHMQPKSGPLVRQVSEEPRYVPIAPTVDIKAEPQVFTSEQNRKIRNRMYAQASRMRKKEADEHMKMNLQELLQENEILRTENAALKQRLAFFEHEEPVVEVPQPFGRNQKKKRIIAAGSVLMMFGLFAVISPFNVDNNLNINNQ

[6] = target: T5, zip-3 (W07G1.3) (Caenorhabditis elegans) (UniProt Q9XUK2)
T5 sequence: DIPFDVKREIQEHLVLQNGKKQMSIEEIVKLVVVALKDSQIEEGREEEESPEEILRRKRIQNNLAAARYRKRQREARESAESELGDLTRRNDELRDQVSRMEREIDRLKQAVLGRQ

[7] = target: T6, xbp-1 (R74.3) (Caenorhabditis elegans) (UniProt G5EE07)
T6 sequence: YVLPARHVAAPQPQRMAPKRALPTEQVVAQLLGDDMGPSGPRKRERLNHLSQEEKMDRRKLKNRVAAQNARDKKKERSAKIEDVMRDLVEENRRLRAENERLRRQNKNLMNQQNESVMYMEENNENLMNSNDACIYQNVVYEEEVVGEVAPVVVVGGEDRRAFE

[8] = target: T7, ref-2 (C47C12.3) (Caenorhabditis elegans) (UniProt Q7JNM3)
T7 sequence: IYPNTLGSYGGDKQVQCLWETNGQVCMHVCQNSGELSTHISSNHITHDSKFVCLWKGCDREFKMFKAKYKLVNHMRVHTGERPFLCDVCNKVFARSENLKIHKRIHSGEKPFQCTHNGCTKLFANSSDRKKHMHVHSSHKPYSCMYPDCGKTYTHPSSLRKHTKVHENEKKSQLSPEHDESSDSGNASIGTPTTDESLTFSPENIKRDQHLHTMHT

[9] = target: T8, F17A9.3 (F17A9.3) (Caenorhabditis elegans) (UniProt O16213)
T8 sequence: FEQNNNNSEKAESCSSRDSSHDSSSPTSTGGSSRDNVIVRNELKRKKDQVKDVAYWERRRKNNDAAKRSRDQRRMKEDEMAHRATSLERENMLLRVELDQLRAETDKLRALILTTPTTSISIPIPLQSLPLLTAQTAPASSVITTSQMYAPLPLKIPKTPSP

[10] = target: T9, T07C12.11 (T07C12.11) (Caenorhabditis elegans) (UniProt G5EGG9)
T9 sequence: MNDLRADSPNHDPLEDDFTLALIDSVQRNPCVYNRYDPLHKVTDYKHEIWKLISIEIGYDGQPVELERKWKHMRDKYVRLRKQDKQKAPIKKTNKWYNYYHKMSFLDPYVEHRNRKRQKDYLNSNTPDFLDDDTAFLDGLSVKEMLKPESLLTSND

[11] = target: T10, atf-2 (K08F8.2) (Caenorhabditis elegans) (UniProt Q21361)
T10 sequence: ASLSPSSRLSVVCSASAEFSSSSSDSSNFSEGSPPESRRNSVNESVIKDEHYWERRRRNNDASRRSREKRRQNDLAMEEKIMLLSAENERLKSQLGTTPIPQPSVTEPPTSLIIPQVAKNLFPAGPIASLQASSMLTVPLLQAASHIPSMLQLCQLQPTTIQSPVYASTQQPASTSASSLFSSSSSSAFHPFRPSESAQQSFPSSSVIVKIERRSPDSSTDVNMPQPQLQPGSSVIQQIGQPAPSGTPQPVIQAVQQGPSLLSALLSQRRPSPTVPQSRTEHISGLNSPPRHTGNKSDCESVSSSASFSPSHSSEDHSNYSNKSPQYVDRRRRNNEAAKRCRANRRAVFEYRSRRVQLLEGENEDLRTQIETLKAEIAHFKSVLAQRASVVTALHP

Chain of atf-7 (C07G2.2) (Caenorhabditis elegans) (Q86MD3 339-508): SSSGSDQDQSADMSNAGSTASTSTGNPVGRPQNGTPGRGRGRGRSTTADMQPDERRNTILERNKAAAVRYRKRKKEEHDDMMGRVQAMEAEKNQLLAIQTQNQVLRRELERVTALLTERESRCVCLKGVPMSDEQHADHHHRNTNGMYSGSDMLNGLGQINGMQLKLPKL

Sequence	binding signal (PBM E-score (-0.5 to 0.5)) [1]	binding signal (PBM E-score (-0.5 to 0.5)) [2]	binding signal (PBM E-score (-0.5 to 0.5)) [3]	binding signal (PBM E-score (-0.5 to 0.5)) [4]	binding signal (PBM E-score (-0.5 to 0.5)) [6]	binding signal (PBM E-score (-0.5 to 0.5)) [7]	also measured
TGACGTAA (double strand) [8-mer TGACGTAA]	0.495	0.454	0.47	0.49			binding signal (PBM E-score (-0.5 to 0.5)) [5]: 0.459
ATGACGTG (double strand) [8-mer ATGACGTG]	0.499			0.485	0.494	0.451	
TGACGTCA (double strand) [8-mer TGACGTCA]	0.5		0.5	0.5	0.5		
CAGCGGGA (double strand) [8-mer CAGCGGGA]							binding signal (PBM E-score (-0.5 to 0.5)) [8]: 0.483
TTACGTAA (double strand) [8-mer TTACGTAA]		0.498					binding signal (PBM E-score (-0.5 to 0.5)) [9]: 0.498; binding signal (PBM E-score (-0.5 to 0.5)) [10]: 0.496; binding signal (PBM E-score (-0.5 to 0.5)) [11]: 0.478
ACGTCATC (double strand) [8-mer ACGTCATC]	0.499			0.49	0.493	0.471	
